The source of these data is article PMC12013264 (mSystems, 2025).

≈ marks a conversion by molar mass, not a printed value. Like-named read-outs stand apart in the source and are kept apart here.

The target in one data set is T1, KPC-3 (Klebsiella pneumoniae, UniProt Q93DC4).
T1 construct: gene bla; signal peptide (1-29) removed, KPC30-293 in pET28a, E. coli BL21 Rosetta-gami DE3, His-tag cut with thrombin
Nature of the data set: isothermal titration calorimetry. Format: binding. An excerpt:
isothermal titration calorimetry on KPC-3

The next data set has as its system T2, E. coli DH10B.
T2 construct: DH10B empty plasmid control
Nature of the data set: microbe, parasite or virus in culture. Also noted: species or system E. coli DH10B or K. pneumoniae; CLSI standard broth microdilution MIC in triplicate, median values. The conditions noted are these: Escherichia coli. The text has this: (§1) The blaKPC amplicons (full length) were cloned into the Tn4401a-pET28a plasmid between the BamHI (as the 5′ end upstream) and XbaI (as the 3′ end downstream) restriction sites, which is the opposite direction of conventional induced expression for removing the His-tag expression. This insertion was downstream of the blaKPC Tn4401a promoter. The Tn4401a promoter was inserted between the EcoRI and BamHI sites. KPC expression was achieved by inserting the natural promoter Tn4401a upstream of the blaKPC gene, thus avoiding the use of the pET-28a vector’s T7 promoter and the resulting His-tag fusion. E. coli DH10B strains containing the generated KPCs-Tn4401a-pET28a plasmid underwent antimicrobial susceptibility testing in triplicate using the standard broth microdilution, following the Clinical and Laboratory Standards Institute (CLSI) recommendations (CLSI M100-S34) . Klebsiella pneumoniae expressing KPC-3 and E. coli DH10B containing an empty plasmid served as positive and negative controls, respectively.

Data set [1] relates to T3, E. coli DH10B carrying KPC-3-Tn4401a-pET28a.
T3 construct: DH10B full-length blaKPC-3 under Tn4401a promoter in pET28a
In words: microbe, parasite or virus in culture. Also noted: species or system E. coli DH10B or K. pneumoniae; CLSI standard broth microdilution MIC in triplicate, median values. The conditions noted are these: Escherichia coli.
Description: as §1, with “.” for “. Klebsiella pneumoniae expressing KPC-3 and E. coli DH10B containing an empty plasmid served as positive and negative controls, respectively.”

Data set [2] concerns T4, E. coli DH10B carrying KPC-2-Tn4401a-pET28a.
T4 construct: DH10B full-length blaKPC-2 under Tn4401a promoter in pET28a
In words: microbe, parasite or virus in culture. The arrangement: species or system E. coli DH10B or K. pneumoniae; CLSI standard broth microdilution MIC in triplicate, median values. The conditions noted are these: Escherichia coli.
Description: as §1, with “.” for “. Klebsiella pneumoniae expressing KPC-3 and E. coli DH10B containing an empty plasmid served as positive and negative controls, respectively.”

In data set [3] the test system is T5, Klebsiella pneumoniae Kpn with KPC-3.
T5 construct: K. pneumoniae producing KPC-3, positive control
In words: microbe, parasite or virus in culture. The arrangement: species or system E. coli DH10B or K. pneumoniae; CLSI standard broth microdilution MIC in triplicate, median values.

Data set [4] has as its system CO/N=C(\C(=O)N[C@@H]1C(=O)N2C(C(=O)[O-])=C(C[N+]3(C)CCCC3)CS[C@H]12)c1csc(N)n1. In words: purified protein. The following applies: 100 mM sodium phosphate, pH 7.0, 37 °C.
Data set [5] concerns Cc1nnc(SCC2=C(C(=O)O)N3C(=O)[C@@H](NC(=O)Cn4cnnn4)[C@H]3SC2)s1. In words: purified protein. The conditions noted are these: 100 mM sodium phosphate, pH 7.0, 37 °C.
Data set [6] deals with C[C@@H](O)[C@H]1C(=O)N2C(C(=O)O)=C(S[C@@H]3CN[C@H](C(=O)N(C)C)C3)[C@H](C)[C@H]12. Nature of the data set: purified protein. The following applies: 100 mM sodium phosphate, pH 7.0, 37 °C.
Data set [7] relates to CC(C)(O/N=C(\C(=O)N[C@@H]1C(=O)N2C(C(=O)[O-])=C(C[n+]3ccccc3)CS[C@H]12)c1csc(N)n1)C(=O)O. Nature of the data set: purified protein. The conditions noted are these: 100 mM sodium phosphate, pH 7.0, 37 °C.
Data set [8] deals with CCN1CCN(C(=O)N[C@@H](C(=O)N[C@@H]2C(=O)N3[C@@H]2SC(C)(C)[C@@H]3C(=O)O)c2ccccc2)C(=O)C1=O. Nature of the data set: purified protein. The following applies: 100 mM sodium phosphate, pH 7.0, 37 °C.
Data set [9] has as its system C[C@@H](O)[C@H]1C(=O)N2C(C(=O)O)=C(SCCN=CN)C[C@H]12. Nature of the data set: purified protein. The conditions noted are these: 100 mM sodium phosphate, pH 7.0, 37 °C.

T1 sequence (Q93DC4 30-293 limits assumed): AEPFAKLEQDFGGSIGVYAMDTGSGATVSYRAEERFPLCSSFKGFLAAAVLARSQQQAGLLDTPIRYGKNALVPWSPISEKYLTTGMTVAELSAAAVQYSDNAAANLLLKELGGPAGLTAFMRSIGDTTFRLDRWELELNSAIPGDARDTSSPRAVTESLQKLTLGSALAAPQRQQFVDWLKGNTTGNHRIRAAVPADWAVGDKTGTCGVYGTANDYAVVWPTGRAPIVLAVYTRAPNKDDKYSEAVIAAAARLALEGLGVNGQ

As for `NC(=O)[C@@H]1CC[C@@H]2CN1C(=O)N2OS(=O)(=O)O` [avibactam], the affinity at KPC-3, expressed as Kd, was 7.49 nM. That is a single-digit nanomolar value.

`C[C@H]1[C@H](NC(=O)/C(=N\OC(C)(C)C(=O)O)c2csc(N)n2)C(=O)N1S(=O)(=O)O` [aztreonam]: the MIC in the data set on E. coli DH10B (read-out: MIC (mg/L)^a / ATM) was less than 0.125 mg/L.

`Cc1nnc(SCC2=C(C(=O)O)N3C(=O)[C@@H](NC(=O)Cn4cnnn4)[C@H]3SC2)s1` [cefazolin]: the MIC in data set [1] (read-out: MIC (mg/L) ^a / CZO) is 256 mg/L (≈ 563 µM); in data set [2] (read-out: MIC (mg/L)^a / CZO), 256 mg/L (≈ 563 µM); in data set [3] (read-out: MIC (mg/L)^a / CZO), more than 256 mg/L; with E. coli DH10B (read-out: MIC (mg/L)^a / CZO), 2 mg/L (≈ 4.4 µM).

For `CO/N=C(\C(=O)N[C@@H]1C(=O)N2C(C(=O)[O-])=C(C[N+]3(C)CCCC3)CS[C@H]12)c1csc(N)n1` [cefepime], the MIC in data set [1] (read-out: MIC (mg/L) ^a / FEP) was 8 mg/L (≈ 16.6 µM); in data set [2] (read-out: MIC (mg/L)^a / FEP), 4 mg/L (≈ 8.32 µM); in data set [3] (read-out: MIC (mg/L)^a / FEP), more than 256 mg/L; with E. coli DH10B (read-out: MIC (mg/L)^a / FEP), less than 0.125 mg/L.

Regarding `CC(C)(O/N=C(\C(=O)N[C@@H]1C(=O)N2C(C(=O)[O-])=C(C[n+]3ccccc3)CS[C@H]12)c1csc(N)n1)C(=O)O` [ceftazidime], the MIC is 64 mg/L (≈ 117 µM) in [1] (read-out: MIC (mg/L) ^a / CAZ), 8 mg/L (≈ 14.6 µM) in [2] (read-out: MIC (mg/L)^a / CAZ), more than 256 mg/L in [3] (read-out: MIC (mg/L)^a / CAZ) and 0.25 mg/L (≈ 0.457 µM) with E. coli DH10B (read-out: MIC (mg/L)^a / CAZ).

`CO/N=C(\C(=O)N[C@@H]1C(=O)N2C(C(=O)O)=C(CSc3nc(=O)c(O)nn3C)CS[C@H]12)c1csc(N)n1` [ceftriaxone]: the MIC in the data set with E. coli DH10B (read-out: MIC (mg/L)^a / CRO) was less than 0.125 mg/L.

On to `CO/N=C(\C(=O)N[C@@H]1C(=O)N2C(C(=O)O)=C(COC(N)=O)CS[C@H]12)c1ccco1` [cefuroxime], for which the MIC in data set [1] (read-out: MIC (mg/L) ^a / CXM) is more than 256 mg/L; in data set [2] (read-out: MIC (mg/L)^a / CXM), more than 256 mg/L; in data set [3] (read-out: MIC (mg/L)^a / CXM) it was more than 256 mg/L; in the data set on E. coli DH10B (read-out: MIC (mg/L)^a / CXM), 4 mg/L (≈ 9.43 µM).

Turning to `C[C@@H](O)[C@H]1C(=O)N2C(C(=O)O)=C(SCCN=CN)C[C@H]12` [imipenem], the MIC stood at 2 mg/L (≈ 6.68 µM) in data set [1] (read-out: MIC (mg/L) ^a / IPM), 1 mg/L (≈ 3.34 µM) in data set [2] (read-out: MIC (mg/L)^a / IPM), 16 mg/L (≈ 53.4 µM) in [3] (read-out: MIC (mg/L)^a / IPM) and 0.25 mg/L (≈ 0.835 µM) in the data set with E. coli DH10B (read-out: MIC (mg/L)^a / IPM).

Consider `C[C@@H](O)[C@H]1C(=O)N2C(C(=O)O)=C(S[C@@H]3CN[C@H](C(=O)N(C)C)C3)[C@H](C)[C@H]12` [meropenem], for which the MIC in [1] (read-out: MIC (mg/L) ^a / MEM) is 0.25 mg/L (≈ 0.652 µM); in data set [2] (read-out: MIC (mg/L)^a / MEM), 0.25 mg/L (≈ 0.652 µM); in [3] (read-out: MIC (mg/L)^a / MEM), more than 4 mg/L; in the data set with E. coli DH10B (read-out: MIC (mg/L)^a / MEM) it was less than 0.0312 mg/L.

In the case of `CCN1CCN(C(=O)N[C@@H](C(=O)N[C@@H]2C(=O)N3[C@@H]2SC(C)(C)[C@@H]3C(=O)O)c2ccccc2)C(=O)C1=O` [piperacillin], the MIC is more than 256 mg/L in data set [1] (read-out: MIC (mg/L) ^a / PIP), more than 256 mg/L in data set [2] (read-out: MIC (mg/L)^a / PIP), more than 256 mg/L in data set [3] (read-out: MIC (mg/L)^a / PIP) and 2 mg/L (≈ 3.86 µM) with E. coli DH10B (read-out: MIC (mg/L)^a / PIP).

For KPC-2 (Klebsiella pneumoniae), the Km came to 310 ± 23 µM in [4]; 110 ± 3 µM in data set [5]; 16 ± 1 µM in data set [6]; 590 ± 48 µM in [7]; 793 ± 34 µM in data set [8]; 98 ± 9 µM in [9]. Besides, the kcat in data set [4] came out at 4.7 ± 0.1 s⁻¹; in data set [5] it was 65 ± 5 s⁻¹; in data set [6] it was 8 ± 0.5 s⁻¹; in [7], 3.27 ± 0.27 s⁻¹; in data set [8] it was 7.7 ± 0.5 s⁻¹; in [9] it was 28 ± 2 s⁻¹. For the same molecule, the kcat/Km in [4] turned out to be 15000 ± 1200 M⁻¹ s⁻¹; in data set [5], 590000 ± 41000 M⁻¹ s⁻¹; in data set [6] it was 500000 ± 50000 M⁻¹ s⁻¹; in data set [7] it was 5500 ± 400 M⁻¹ s⁻¹; in data set [8], 9700 ± 900 M⁻¹ s⁻¹; in data set [9] it was 290000 ± 10000 M⁻¹ s⁻¹.

In the case of KPC-3 (Klebsiella pneumoniae), the Km in data set [4] is 512 ± 48 µM; in data set [5], 368 ± 16 µM; in data set [6], 24 ± 1 µM; in data set [7] it was 233 ± 19 µM; in data set [8], 1,097 ± 84 μM; in data set [9], 64 ± 3 µM. For the same molecule, the kcat in data set [4] was 4.5 ± 0.3 s⁻¹; in data set [5] it was 61 ± 2 s⁻¹; in data set [6], 5.7 ± 0.4 s⁻¹; in data set [7], 2.7 ± 0.2 s⁻¹; in data set [8] it was 5.2 ± 0.1 s⁻¹; in data set [9], 33 ± 0.7 s⁻¹. Besides, the kcat/Km worked out at 8900 ± 400 M⁻¹ s⁻¹ in data set [4]; 170000 ± 13000 M⁻¹ s⁻¹ in data set [5]; 230000 ± 16000 M⁻¹ s⁻¹ in data set [6]; 11000 ± 1200 M⁻¹ s⁻¹ in [7]; 4800 ± 400 M⁻¹ s⁻¹ in [8]; 520000 ± 34000 M⁻¹ s⁻¹ in [9].
